Assay results published in the Immune Epitope Database (IEDB).

How the values were obtained:
HLA-B*08:03 = assay: IEDB peptide-MHC binding, purified MHC/competitive/fluorescence; filed as Kd, often an IC50 or EC50 that approximates it; ≥ and ≤ were set here for values at or beyond the usual limits of such assays; conditions: source organism: Human immunodeficiency virus 1
HLA-B*15:01 [1] = assay: as above; conditions: source organism: Human immunodeficiency virus 1
HLA-A*26:02 = assay: as above; conditions: source organism: Human immunodeficiency virus 1
HLA-A*68:02 = assay: as above; conditions: source organism: Human immunodeficiency virus 1
HLA-B*39:01 = assay: as above; conditions: source organism: Human immunodeficiency virus 1
HLA-A*02:01 [2] = assay: as above; conditions: source organism: Human immunodeficiency virus 1
HLA-A*02:03 = assay: as above; conditions: source organism: Human immunodeficiency virus 1
HLA-B*07:02 = assay: as above
HLA-B*08:02 = assay: as above; conditions: source organism: Human immunodeficiency virus 1
HLA-B*15:09 = assay: as above; conditions: source organism: Human immunodeficiency virus 1
HLA-A*30:01 = assay: as above
HLA-A*26:01 [3] = assay: as above; conditions: source organism: Human immunodeficiency virus 1
HLA-A*02:06 [4] = assay: as above; conditions: source organism: Human immunodeficiency virus 1
HLA-A*24:03 = assay: IEDB peptide-MHC binding, purified MHC/direct/fluorescence; filed as Kd, often an IC50 or EC50 that approximates it; ≥ and ≤ were set here for values at or beyond the usual limits of such assays; conditions: source organism: Vibrio parahaemolyticus AQ3810
HLA-B*57:01 = assay: as above; conditions: source organism: Vibrio parahaemolyticus AQ3810
HLA-A*69:01 = assay: as above; conditions: source organism: Vibrio parahaemolyticus AQ3810
HLA-B*15:01 [5] = assay: as above; conditions: source organism: Vibrio parahaemolyticus AQ3810
HLA-B*15:17 = assay: as above; conditions: source organism: Vibrio parahaemolyticus AQ3810
HLA-A*29:02 = assay: as above; conditions: source organism: Vibrio parahaemolyticus AQ3810
HLA-A*26:01 [6] = assay: as above; conditions: source organism: Vibrio parahaemolyticus AQ3810
HLA-B*27:03 = assay: as above; conditions: source organism: Vibrio parahaemolyticus AQ3810
HLA-B*46:01 = assay: as above; conditions: source organism: Vibrio parahaemolyticus AQ3810
HLA-B*18:01 = assay: as above; conditions: source organism: Vibrio parahaemolyticus AQ3810
HLA-B*51:01 = assay: as above; conditions: source organism: Vibrio parahaemolyticus AQ3810
HLA-A*02:06 [7] = assay: as above; conditions: source organism: Vibrio parahaemolyticus AQ3810
HLA-A*02:01 [8] = assay: as above; conditions: source organism: Vibrio parahaemolyticus AQ3810
HLA-A*02:19 = assay: as above; conditions: source organism: Vibrio parahaemolyticus AQ3810
HLA-A*03:01 = assay: as above; conditions: source organism: Vibrio parahaemolyticus AQ3810
HLA-A*23:01 = assay: as above; conditions: source organism: Vibrio parahaemolyticus AQ3810
HLA-B*27:05 = assay: IEDB peptide-MHC binding, purified MHC/competitive/fluorescence; filed as Kd, often an IC50 or EC50 that approximates it; ≥ and ≤ were set here for values at or beyond the usual limits of such assays; conditions: source organism: Vibrio parahaemolyticus AQ3810
HLA-B*44:02 = assay: as above; conditions: source organism: Vibrio parahaemolyticus AQ3810
HLA-B*14:02 = assay: as above; conditions: source organism: Vibrio parahaemolyticus AQ3810
HLA-A*11:01 = assay: as above; conditions: source organism: Vibrio parahaemolyticus AQ3810
HLA-B*53:01 = assay: as above; conditions: source organism: Vibrio parahaemolyticus AQ3810
HLA-B*40:01 = assay: as above; conditions: source organism: Vibrio parahaemolyticus AQ3810
HLA-B*58:01 = assay: as above; conditions: source organism: Vibrio parahaemolyticus AQ3810
HLA-A*01:01 = assay: as above; conditions: source organism: Vibrio parahaemolyticus AQ3810
HLA-A*66:01 = assay: as above; conditions: source organism: Vibrio parahaemolyticus AQ3810
HLA-B*08:01 = assay: as above; conditions: source organism: Vibrio parahaemolyticus AQ3810
HLA-A*30:02 = assay: as above; conditions: source organism: Vibrio parahaemolyticus AQ3810
[9] = source organism: Human immunodeficiency virus 1
[10] = source organism: Vibrio parahaemolyticus AQ3810

Measured: Kd

EIKDTEEAL
0.183 µM: HLA-A*68:02
≥ 20 µM: HLA-B*08:03 | HLA-B*15:01 [1] | HLA-A*26:02 | HLA-B*39:01 | HLA-A*02:01 [2]

EVKSLFNTV
0.199 µM: HLA-A*26:02
0.0849 µM: HLA-A*02:06 [4]
≥ 20 µM: HLA-A*02:03 | HLA-B*07:02; [9] | HLA-B*08:02 | HLA-B*15:09 | HLA-A*30:01; [9] | HLA-A*26:01 [3] | HLA-A*02:01 [2]
0.0004 µM: HLA-A*68:02

HQFTSNPEV
≥ 5 µM: HLA-B*27:05 | HLA-B*07:02; [10] | HLA-B*44:02 | HLA-B*14:02 | HLA-A*11:01 | HLA-B*53:01 | HLA-B*58:01 | HLA-A*01:01 | HLA-A*30:01; [10] | HLA-A*66:01 | HLA-B*08:01 | HLA-A*30:02
0.416 µM: HLA-B*40:01
0.004 µM: HLA-A*02:01 [8]
≥ 20 µM: HLA-A*24:03 | HLA-B*57:01 | HLA-A*69:01 | HLA-B*15:01 [5] | HLA-B*15:17 | HLA-A*29:02 | HLA-A*26:01 [6] | HLA-B*27:03 | HLA-B*46:01 | HLA-B*18:01 | HLA-B*51:01 | HLA-A*02:19 | HLA-A*03:01 | HLA-A*23:01
0.008 µM: HLA-A*02:06 [7]
